Measured values published in paper PMC12756731, “Substitution of Zn^2+ with Ni^2+ Alters Kinetic Steps in D‑2-Hydroxyglutarate Dehydrogenase from Pseudomonas aeruginosa PAO1” (ACS Omega, 2025).

How the values were obtained:
[1] = target: T1, D-2-hydroxyglutarate dehydrogenase (P. aeruginosa D2HGDH; EFAD-Zn^2+, EFAD-Ni^2+) (Pseudomonas aeruginosa, UniProt Q9I6H4); experiment: UV-vis absorbance of purified enzyme with bound flavin; type: binding; conditions: co-purified oxidized FAD in EFAD-Ni2+ enzyme; maxima at 380 and 450 nm
T1 construct: gene PA0317; 6 His-tag at the tail of the gene (C-terminal), pET20b(+), E. coli Rosetta(DE3)pLysS; loaded with Zn2+ or Ni2+
T1 sequence (Q9I6H4 1-464): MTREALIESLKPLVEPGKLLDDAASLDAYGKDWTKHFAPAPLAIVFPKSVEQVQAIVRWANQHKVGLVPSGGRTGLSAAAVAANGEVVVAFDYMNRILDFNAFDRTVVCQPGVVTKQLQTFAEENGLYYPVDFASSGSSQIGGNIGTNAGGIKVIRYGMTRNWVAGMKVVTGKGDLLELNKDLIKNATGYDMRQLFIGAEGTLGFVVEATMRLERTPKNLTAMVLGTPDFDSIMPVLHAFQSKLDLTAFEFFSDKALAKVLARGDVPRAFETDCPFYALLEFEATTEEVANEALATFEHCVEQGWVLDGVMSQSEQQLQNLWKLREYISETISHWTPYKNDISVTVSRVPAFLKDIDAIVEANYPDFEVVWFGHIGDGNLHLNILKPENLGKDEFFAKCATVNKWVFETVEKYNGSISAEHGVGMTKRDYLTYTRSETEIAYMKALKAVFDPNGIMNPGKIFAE

[2] = substrate: O=C(O)CC[C@@H](O)C(=O)O; experiment: PMS-driven oxygen consumption, Clark-type oxygen electrode, initial rates; type: biochemical, Pseudomonas aeruginosa; conditions: 1 mM PMS (saturating), 25 mM NaPO4, pH 7.4, 25 °C
From the text: PMS-driven oxygen consumption, Clark-type oxygen electrode, initial rates on D-2-hydroxyglutarate dehydrogenase (P. aeruginosa D2HGDH; EFAD-Zn^2+, EFAD-Ni^2+)

[3] = Ni2+-substituted enzyme (EFAD-Ni2+), non-native metal
[4] = native Zn2+-loaded enzyme (EFAD-Zn2+)

| Molecule | UV-vis absorbance of purified enzyme with bound flavin [1] | Km [2, 3] | kcat [2, 3] | kcat/Km [2, 3] | Km [2, 4] | kcat [2, 4] | kcat/Km [2, 4] |
| --- | --- | --- | --- | --- | --- | --- | --- |
| Cc1cc2nc3c(=O)[nH]c(=O)nc-3n(C[C@H](O)[C@H](O)[C@H](O)COP(=O)(O)OP(=O)(O)OC[C@H]3O[C@@H](n4cnc5c(N)ncnc54)[C@H](O)[C@@H]3O)c2cc1C [FAD] | enzyme was in a fully oxidized state with the bound FAD cofactor |  |  |  |  |  |  |
| D-2-hydroxyglutarate dehydrogenase (P. aeruginosa D2HGDH; EFAD-Zn^2+, EFAD-Ni^2+) (Pseudomonas aeruginosa PAO1) (protein, 6 His-tag at the tail of the gene (C-terminal), pET20b(+), E. coli Rosetta(DE3)pLysS; loaded with Zn2+ or Ni2+) MTREALIESLKPLVEPGKLLDDAASLDAYGKDWTKHFAPAPLAIVFPKSVEQVQAIVRWANQHKVGLVPSGGRTGLSAAAVAANGEVVVAFDYMNRILDFNAFDRTVVCQPGVVTKQLQTFAEENGLYYPVDFASSGSSQIGGNIGTNAGGIKVIRYGMTRNWVAGMKVVTGKGDLLELNKDLIKNATGYDMRQLFIGAEGTLGFVVEATMRLERTPKNLTAMVLGTPDFDSIMPVLHAFQSKLDLTAFEFFSDKALAKVLARGDVPRAFETDCPFYALLEFEATTEEVANEALATFEHCVEQGWVLDGVMSQSEQQLQNLWKLREYISETISHWTPYKNDISVTVSRVPAFLKDIDAIVEANYPDFEVVWFGHIGDGNLHLNILKPENLGKDEFFAKCATVNKWVFETVEKYNGSISAEHGVGMTKRDYLTYTRSETEIAYMKALKAVFDPNGIMNPGKIFAE |  | 140 ± 10 µM | 18 ± 1 s⁻¹ | 130000 ± 9000 M⁻¹ s⁻¹ | 150 ± 10 µM | 30 ± 1 s⁻¹ | 205000 ± 10000 M⁻¹ s⁻¹ |
